Test results: patent US20100093076A1, “SOLUBLE IL-27 RECEPTOR” (priority 2006, published 2010)

Experiments:
[1] = target: T1, human ligand (single-chain IL27: EBI3 linked to IL-27 p28) (Homo sapiens, UniProt Q14213+Q8NEV9); experiment: Surface plasmon resonance (BIACORE 3000) kinetic rate and affinity constants; type: binding; settings: SPR
T1 construct: purchased R&D Systems
T1 sequence (Q14213+Q8NEV9 with tags, fused parts or gaps): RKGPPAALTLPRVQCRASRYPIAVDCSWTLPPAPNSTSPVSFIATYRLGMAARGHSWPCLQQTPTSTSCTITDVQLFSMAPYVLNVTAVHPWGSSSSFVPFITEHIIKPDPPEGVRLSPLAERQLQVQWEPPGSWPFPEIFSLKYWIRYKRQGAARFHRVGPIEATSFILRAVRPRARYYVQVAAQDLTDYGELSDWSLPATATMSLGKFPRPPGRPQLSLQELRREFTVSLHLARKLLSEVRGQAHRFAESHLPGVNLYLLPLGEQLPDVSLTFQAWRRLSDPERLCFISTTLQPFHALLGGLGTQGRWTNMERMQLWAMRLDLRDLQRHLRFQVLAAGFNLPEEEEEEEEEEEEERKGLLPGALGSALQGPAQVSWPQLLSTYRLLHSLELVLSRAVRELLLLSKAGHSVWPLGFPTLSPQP
Protocol: (§1) Kinetic rate and affinity constant values for the mouse (IL27RAm(mFc1), Example 1) and human (IL27RA-Fc5, Example 2) soluble receptors were obtained by surface plasmon resonance (SPR) using an automated instrument (BIACORE 3000; Biacore International AB, Uppsala, Sweden). The mouse soluble receptor was tested against mouse ligand (lot A1418F), and the human soluble receptor was tested against both mouse (A1426F) and human (A1534F) ligands. For determination of the kinetic rate constants for the receptor-ligand interactions, the gp130 molecule was not included as part of the receptor complex.
(§2) The IL27 ligands used in this study were single-chain molecules comprising EBI3 connected by its C-terminus to the N-terminus of IL-27 p28 via a polypeptide linker. (R&D Systems) Each of the ligands included an amino-terminal peptide tag.
(§3) For the mouse IL27RA study, the soluble receptor was captured onto the chip surface by an isotype-specific anti-mouse Fc antibody (obtained from Jackson ImmunoResearch Laboratories, Inc., West Grove, Pa.) covalently immobilized to the chip (BIACORE CM5 chip) using the standard amine coupling protocol specified by the instrument manufacturer. For the human IL27RA studies, the soluble receptor was directly and covalently immobilized to the chip via the amine coupling protocol. In all studies, ligand was injected over the active (receptor-bound) surface at varying concentrations to obtain a series of binding curves.
(§4) Experimental conditions were optimized for determination of kinetic rate constant values. The molecular densities of the soluble receptor protein loaded onto the chip surface were targeted to obtain maximum IL27 binding levels (Rmax) of ≦20 RU. The analyte (ligand) was injected over the receptor surface at a flow rate of […] at a concentration range of approximately 0.05 to 10 nM, allowing for an association phase of 3 minutes and a dissociation phase of 10 minutes. The mouse soluble receptor surface was regenerated with two 30-second injections at 50 μL/minute of glycine, pH 2.0. The human soluble receptor surface was similarly regenerated with a single 30-second injection.
(§5) All data were assessed using software provided with the instrument (BIACORE Evaluation software v. 3.2). The binding curves were globally fitted to a 1:1 binding model corrected for mass transport limitation resulting from the fast on-rate values (ka) obtained. Statistical analysis of the fits of the experimental binding curves versus theoretical curves gave standard error values for ka and kd of less than 2%, and chi^2 values of less than 2% of Rmax for all interactions tested, providing reasonable confidence in the kinetic rate constant values obtained.

[2] = target: T2, mouse ligand (single-chain IL27: EBI3 linked to IL-27 p28) (Mus musculus, UniProt O35228+Q8K3I6); experiment: as above; type: binding; settings: SPR
T2 construct: purchased R&D Systems
T2 sequence (O35228+Q8K3I6 with tags, fused parts or gaps): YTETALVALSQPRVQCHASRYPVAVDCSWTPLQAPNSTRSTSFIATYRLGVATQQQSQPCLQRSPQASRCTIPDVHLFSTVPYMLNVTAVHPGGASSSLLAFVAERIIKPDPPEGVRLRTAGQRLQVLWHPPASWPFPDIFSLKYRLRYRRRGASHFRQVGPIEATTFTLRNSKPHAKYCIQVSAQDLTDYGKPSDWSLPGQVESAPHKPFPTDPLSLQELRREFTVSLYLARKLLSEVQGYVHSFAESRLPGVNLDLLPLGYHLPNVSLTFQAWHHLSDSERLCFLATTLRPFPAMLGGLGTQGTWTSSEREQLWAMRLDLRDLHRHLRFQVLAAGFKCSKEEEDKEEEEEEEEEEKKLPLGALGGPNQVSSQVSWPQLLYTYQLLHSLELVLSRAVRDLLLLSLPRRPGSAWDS
Protocol: as §1, §2, §3, §4, §5

- ka ([1]; 1:1 binding model): 1e+07 M⁻¹ s⁻¹
- kd ([1]; 1:1 binding model): 0.0019 s⁻¹
- Kd ([1]; Kd=kd/ka): 0.19 nM
- ka ([2]; 1:1 binding model): 8.1e+06 M⁻¹ s⁻¹
- kd ([2]; 1:1 binding model): 0.0018 s⁻¹
- Kd ([2]; Kd=kd/ka): 0.22 nM
Substance: human IL-27RA-Fc5: Extracellular domain of human IL27RA (amino acids 1 to 512 of SEQ ID NO:3) fused to Fc5, effector minus human gamma1 Fc; SEQ ID NO:16
